Measured values published in patent publication US20230391879A1 (INTERVET, published 2023).
Positions count from the first letter of the chain named.

T1: Canine IL-31RA ECD-10His (canine)
T1 construct: made in HEK-293 or CHO cells and coated on the ELISA plates; also called canine IL-31 receptor alpha extracellular domain HIS-tagged protein; cIL-31RA
T1 chain: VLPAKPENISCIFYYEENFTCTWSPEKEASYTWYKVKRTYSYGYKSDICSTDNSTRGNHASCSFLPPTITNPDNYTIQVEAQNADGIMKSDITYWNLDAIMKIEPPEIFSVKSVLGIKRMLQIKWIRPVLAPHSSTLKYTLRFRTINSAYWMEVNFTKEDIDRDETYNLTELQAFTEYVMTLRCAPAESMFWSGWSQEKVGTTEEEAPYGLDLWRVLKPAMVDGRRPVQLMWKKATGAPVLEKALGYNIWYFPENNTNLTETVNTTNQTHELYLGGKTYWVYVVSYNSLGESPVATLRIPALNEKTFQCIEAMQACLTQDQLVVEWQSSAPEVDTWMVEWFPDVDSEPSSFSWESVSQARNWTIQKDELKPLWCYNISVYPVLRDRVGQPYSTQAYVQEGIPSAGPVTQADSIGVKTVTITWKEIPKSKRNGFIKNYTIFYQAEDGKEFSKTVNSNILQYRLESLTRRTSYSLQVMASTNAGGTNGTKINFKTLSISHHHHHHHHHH

B1: caninized 10A12VH1VL5 (antibody, V domains shown)
VH: EVQLVESGGDLVKPGGSLRLSCVASGFTFSNYYMAWVRQAPGKGLQWVASISTGGGNTYYRDSVKGRFTISRDNAKNTLYLQMNSLRAEDTAMYYCAKHGTLYFDYWGQGTLVTVSS
VL: QPVLTQPPSLSASLGTTARLTCERSSGDIGDSYVSWYQQKPGSPPRDLLYVDDQRPSGVSKSFSGSKDTSANAGLLLISGLQPEDEADYYCQSYDSNIDGPVFGGGTHLTVLG
notes: Caninized antibody, canine IgG-Bm heavy chain and canine lambda light chain; also called c10A12VH1-cIgGBm + c10A12VL5-cCL
B2: caninized 10A12VH1VL6 (antibody, V domains shown)
VH: B1 VH
VL: B1 VL with L48V, L49I, G58E, Y90F
notes: Caninized antibody, canine IgG-Bm heavy chain and canine lambda light chain; also called c10A12VH1-cIgGBm + c10A12VL6-cCL
B3: caninized 10A12VH2VL6 (antibody, V domains shown)
VH: B1 VH with V23A, K98R
VL: B1 VL with L48V, L49I, G58E, Y90F
notes: Caninized antibody, canine IgG-Bm heavy chain and canine lambda light chain; also called c10A12; c10A12VH2-cIgGBm + c10A12VL6-cCL
B4: caninized 10A12VH2VL5 (antibody, V domains shown)
VH: B1 VH with V23A, K98R
VL: B1 VL
notes: Caninized antibody, canine IgG-Bm heavy chain and canine lambda light chain; also called c10A12VH2-cIgGBm + c10A12VL5-cCL
B5: caninized 28F12VH2VK3 (antibody, V domains shown)
VH: EVQLVESGGDLVKPGGSLRLSCAASGFTFSDYYMAWVRQAPGKGLQWVATISYDGSSTYYRDSVRGRFTISRDNAKNTLYLQMNSLRAEDTAMYYCARGPLTDWAPNWFAYWGQGTLVTVSS
VL: DIVMTQSPASLSLSQEEKVTITCQTSEDIYSGLAWYQQKPGQAPKLLIYGASRLEDGVPSRFSGSGSGTDFSFTISSLEPEDVAVYFCQQGLKYPNTFGAGTKVELKR
notes: Caninized antibody, canine IgG-Bm heavy chain and canine kappa light chain; also called c28F12; c28F12VH2-cIgGBm + c28F12VK3-cCK
B6: caninized 28F12VH1VK4 (antibody, V domains shown)
VH: B5 VH with A23V, R98K
VL: DIVMTQTPLSLSVSPGETASISCQTSEDIYSGLAWFRQKPGQSPQLLIYGASRLEDGVPDRFSGSGSGTDFTLRISTVEADDTGVYFCQQGLKYPNTFGAGTKVELKR
notes: Caninized antibody, canine IgG-Bm heavy chain and canine kappa light chain; also called c28F12VH1-cIgGBm + c28F12VK4-cCK
B7: caninized 28F12VH2VK2 (antibody, V domains shown)
VH: B5 VH
VL: B5 VL with D1E, F87Y
notes: Caninized antibody, canine IgG-Bm heavy chain and canine kappa light chain; also called caninized 28F12VH2K2; c28F12
B8: caninized 28F12VH2VK4 (antibody, V domains shown)
VH: B5 VH
VL: B6 VL
notes: Caninized antibody, canine IgG-Bm heavy chain and canine kappa light chain; also called c28F12VH2-cIgGBm + c28F12VK4-cCK
B9: caninized 28F12VH1VK3 (antibody, V domains shown)
VH: B5 VH with A23V, R98K
VL: B5 VL
notes: Caninized antibody, canine IgG-Bm heavy chain and canine kappa light chain; also called c28F12VH1-cIgGBm + c28F12VK3-cCK
B10: 28F12 (antibody, V domains shown)
VH: EVQLVESDGGLAQPGRSLKLSCAASGFTFSDYYMAWVRQAPTKGLEWVATISYDGSSTYYRDSVRGRFTISRDNAKSTLYLQMDSLRSEDTATYYCARGPLTDWAPNWFAYWGQGTLVTVSS
VL: DIQMTQSPASLSASLGETVTIQCQTSEDIYSGLAWYQQKPGKSPQFLIYGASRLEDGVPSRFSGSGSGTQYSLKISSMQTEDEGVYFCQQGLKYPNTFGAGTKLELK
notes: Rat monoclonal antibody from a hybridoma; also called rat mAb 28F12
B11: 47F3 (antibody, V domains shown)
VH: EVQLVESGGGLVQPGRSMKLSCVASGFTFSNYYMAWVRQAPTKGLEWVASISTGGGNTYYRDSVKGRFTISRDNAKSTLYLQMDSLRSEDTATYYCARHGTLYFDYWGQGVMVTVS
VL: QFTLTQPKSVSGSLRSTITIPCERSSGDIGNTYVSWYQQHLGRPPINVIYADDQRPSEVSDRFSGSIDSSSNSASLTITNLQMDDEADYFCQSYDSNIDGPVFGGGTKLTVL
notes: Rat monoclonal antibody from a hybridoma; also called rat mAb 47F3
B12: 51G4 (antibody, V domains shown)
VH: EVQLVESGGGLVQPGRSMKLSCAALGFTFSNYYMAWVRQAPTKGLEWVASISTGGGNTYYRDSVKGRFTISRDNAKNTLYLQMDSLRSEDTATYYCARHGTIAAMDYWGQGVMVTVSS
VL: B11 VL with S25N, S26N, N31D, T32S, N47I
notes: Rat monoclonal antibody from a hybridoma; also called rat mAb 51G4
B13: 49D3 (antibody, V domains shown)
VH: EVQLVESGGGLVQPGRSMKLSCAASGFTFSNYYMAWVRQAPTKGLEWVASISTGGGNTYYRDSVKGRFTISRDNAKSTLYLQMDSLRSEDTATYYCARHGTLYFDYWGQGVMVTVSS
VL: B11 VL with N31D, T32S
notes: Rat monoclonal antibody from a hybridoma; also called rat mAb 49D3
B14: 27A10 (antibody, V domains shown)
VH: B13 VH with A23T, S88A, G100T, T101M, L102G
VL: B11 VL with N31D, T32N, S96G, N97K, D99E, G100I
notes: Rat monoclonal antibody from a hybridoma; also called rat mAb 27A10
B15: 10A12 (antibody, V domains shown)
VH: B13 VH with Q13K, S77R, A97G
VL: B11 VL with N31D, T32S, A51V, N80D
notes: Rat monoclonal antibody from a hybridoma; also called rat mAb 10A12
B16: 53B3 (antibody, V domains shown)
VH: B12 VH with L25F, S30N, Y59F, A75V, N77S, T78I, Y80S
VL: B11 VL with S25T, N31D, T32N
notes: Rat monoclonal antibody from a hybridoma; also called rat mAb 53B3
B17: 4G7 (antibody, V domains shown)
VH: EVQLQQYGAELGKPGTSVKLSCKVSGYNIRSTFMHWVNQRPGKGLEWIGRIDPVNGNTIYSEKFKSKATLTADTSSNTAYMQLSQLKSDDTAIYFCAMFNYAGHSGDYWGQGVMVTVSS
VL: DIQMTQSPSSMSVSLGDTVTITCRASQDVGIYVNWFQQKPGKSPRRMIYRATNLADGVPSRFSGSRSGSDYSLTISSLESEDVADYHCLQYDEYPYTFGAGTKLELK
notes: Rat monoclonal antibody from a hybridoma; also called rat mAb 4G7
B18: 44E2 (antibody, V domains shown)
VH: QVQLKESGPGLVQPSQTLSLTCTVSGFSLTSNGVSWVRQPPGKGLEWIAAISSGGSTYYNSVLKSRLSISRDTSKSQVFLKMNSLQTEDTAIYFCTRRLSGYNYVPFAYWGQGTLVTVSS
VL: DIQMTQSPSLLSASVGDRVTLNCKASQNIYKHLAWCQQKLGEPPNLLISNANSLQTGIPSRFSGSGSGTDFTLTISSLQPEDVATYFCQQYYSGDTFGAGTKLELK
notes: Rat monoclonal antibody from a hybridoma; also called rat mAb 44E2
B19: 48B1 (antibody, V domains shown)
VH: EVQLVESGGGLVQPGRTLKLFCVASGFTFNNYWMTWIRQAPGKGLEWVASITNTGGSTYYPDSVKGRFTISRDNAKSTLYLQMNSLRSEDTATYYCTRGPDYGGHLNWFVYWGQGTLVTVSS
VL: DIVMTQSPTSMSISVGDRVTMNCKASQNVGSNVDWYQQKTGQSPKLLIYKASNRYTGVPDRFTGSGSGTDFTFTISNMQAEDLAVYYCMQSNSYPPTFGGGTKLELK
notes: Rat monoclonal antibody from a hybridoma; also called rat mAb 48B1
B20: 20B8 (antibody, V domains shown)
VH: EVQLVESGGGLVQPGRSLKLSCVASGFTFNNYWMTWIRQAPGKGLEWVASITNTGGSTYYPDSVKGRFTISRDNAKSTLYLQMNSLRSEDTATYYCTRGPTTVVGGWFAYWGQGTLVTVSS
VL: B19 VL with K50R, A51P
notes: Rat monoclonal antibody from a hybridoma; also called rat mAb 20B8
B21: 7D7 (antibody, V domains shown)
VH: B19 VH with T17S, F21S, Y59F, V110A
VL: B19 VL with V15A, F62C
notes: Rat monoclonal antibody from a hybridoma; also called rat mAb 7D7
B22: 22B4 (antibody, V domains shown)
VH: B19 VH with T17S, F21S, N31K, T58S, P61S, D90E, V110A
VL: B19 VL with Q38E, L47V
notes: Rat monoclonal antibody from a hybridoma; also called rat mAb 22B4
B23: caninized 44E2VH2VK1 (antibody, V domains shown)
VH: EVQLVESGGDLVKPEGSLRLSCVVSGFSLTSNGVSWVRQAPGKGLQWIAAISSGGSTYYNSVLKSRLTISRDNAKNTLYLQMNSLRTEDTAVYYCARRLSGYNYVPFAYWGQGTLVTVSS
VL: EIVMTQSPASLSLSQEEKVTITCKASQNIYKHLAWYQQKPGQAPKLLIYNANSLQTGVPSRFSGSGSGTDFSFTISSLEPEDVAVYYCQQYYSGDTFGAGTKVELKR
notes: Caninized antibody, canine IgG-Bm heavy chain and canine kappa light chain; also called c44E2; c44E2VH2-cIgGBm + c44E2VK1-cCK
B24: caninized 44E2VH5VK1 (antibody, V domains shown)
VH: ELTLQESGPGLVKPSQTLSLTCTVSGFSLTSNGVSWIRQRPGRGLEWMGAISSGGSTYYNSVLKSRISITADTAKNQFSLQLSSMTTEDTAVYYCARRLSGYNYVPFAYWGQGTLVTVSS
VL: B23 VL
notes: Caninized antibody, canine IgG-Bm heavy chain and canine kappa light chain; also called c44E2VH5-cIgGBm + c44E2VK1-cCK
B25: caninized 44E2VH2VK2 (antibody, V domains shown)
VH: B23 VH
VL: B23 VL with V58I, Y87F
notes: Caninized antibody, canine IgG-Bm heavy chain and canine kappa light chain; also called c44E2; c44E2VH2-cIgGBm + c44E2VK2-cCK
B26: caninized 44E2VH5VK2 (antibody, V domains shown)
VH: B24 VH
VL: B23 VL with V58I, Y87F
notes: Caninized antibody, canine IgG-Bm heavy chain and canine kappa light chain; also called c44E2; c44E2VH5-cIgGBm + c44E2VK2-cCK
B27: caninized 44E2VH4VK1 (antibody, V domains shown)
VH: B24 VH with T23V, F27G, L29V
VL: B23 VL
notes: Caninized antibody, canine IgG-Bm heavy chain and canine kappa light chain; also called c44E2VH4-cIgGBm + c44E2VK1-cCK

Biological target: T1, Canine IL-31RA ECD-10His
Assay: ELISA (FIG. 6A)

binding result	Binder
binds	B1
binds	B2
binds	B3
binds	B4

Biological target: T1, Canine IL-31RA ECD-10His
Assay: ELISA (FIG. 6B)

binding result	Binder
binds	B5
binds	B6
binds	B7
binds	B8
binds	B9

Biological target: T1, Canine IL-31RA ECD-10His
Assay: ELISA, IL-31RA coated

binding result	Binder
binds	B10
binds	B11
binds	B12
binds	B13
binds	B14
binds	B15
binds	B16
binds	B17
binds	B18
binds	B19
binds	B20
binds	B21
binds	B22

Biological target: T1, Canine IL-31RA ECD-10His
Assay: ELISA (FIG. 6C)

binding result	Binder
binds	B23
binds	B24
binds	B25
binds	B26
binds	B27
